Test results published in patent US20140213531A1 (POLYPHOR, published 2014).
Bridges are numbered along the chain shown (N, C = ends). [ ]: non-standard residue; d: D form. Gly(octyl) = CCCCCCCC[C@H](N)C(=O)O; Pro(4NHCOPhe) = not defined here; Cha = N[C@@H](CC1CCCCC1)C(=O)O; Nle = CCCC[C@H](N)C(=O)O

T1: CathepsinG, from human neutrophils (human, UniProt P08311 21-244)
T1 construct: purified natural enzyme, bought
T1 sequence (looked up): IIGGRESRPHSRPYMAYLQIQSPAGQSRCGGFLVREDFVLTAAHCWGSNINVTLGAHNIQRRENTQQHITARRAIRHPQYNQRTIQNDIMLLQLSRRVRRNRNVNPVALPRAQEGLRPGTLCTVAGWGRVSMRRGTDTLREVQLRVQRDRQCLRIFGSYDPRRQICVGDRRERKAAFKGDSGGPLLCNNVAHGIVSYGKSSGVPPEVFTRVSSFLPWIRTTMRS

T2: Chymase, from human skin (human, UniProt P23946 22-247)
T2 construct: purified natural enzyme, bought
T2 sequence (looked up): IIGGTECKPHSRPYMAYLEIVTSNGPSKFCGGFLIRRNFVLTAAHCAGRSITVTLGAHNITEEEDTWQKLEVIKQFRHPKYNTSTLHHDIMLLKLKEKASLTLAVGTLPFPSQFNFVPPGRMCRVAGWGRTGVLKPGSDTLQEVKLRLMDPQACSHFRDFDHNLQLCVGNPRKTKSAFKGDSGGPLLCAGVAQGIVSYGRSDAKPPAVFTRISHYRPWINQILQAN


Tests used:
Assay in all cases: enzyme inhibition, pNA substrate
[1] = target: T1, CathepsinG, from human neutrophils
[2] = target: T3, Trypsin, Iodination grade, from human pancreas (human, UniProt P07477 24-247)
T3 construct: purified natural enzyme, bought

Chymase, from human skin = target: T2, Chymase, from human skin
[3] = target: T4, Urokinase from human urine (human, UniProt P00749 21-431, limits assumed)
T4 construct: purified natural enzyme, bought

[4] = target: T5, Tryptase, from human lung (human, UniProt Q15661 31-275, limits assumed)
T5 construct: purified natural enzyme, bought
T5 sequence (Q15661 31-275 limits assumed): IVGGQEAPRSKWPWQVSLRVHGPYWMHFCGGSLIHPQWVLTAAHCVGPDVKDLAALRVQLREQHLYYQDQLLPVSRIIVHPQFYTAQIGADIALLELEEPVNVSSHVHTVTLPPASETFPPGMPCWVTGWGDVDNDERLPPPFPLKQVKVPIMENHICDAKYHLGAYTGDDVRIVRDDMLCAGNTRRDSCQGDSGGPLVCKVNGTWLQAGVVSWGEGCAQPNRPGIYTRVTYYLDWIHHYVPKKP

[5] = target: T6, Coagulation Factor Xa, from uman plasma (human, UniProt P00742 41-179; P00742 235-488, limits assumed)
T6 construct: purified natural enzyme, bought; also called FXa
T6 sequence (P00742 41-179 limits assumed, chain 1 of 2): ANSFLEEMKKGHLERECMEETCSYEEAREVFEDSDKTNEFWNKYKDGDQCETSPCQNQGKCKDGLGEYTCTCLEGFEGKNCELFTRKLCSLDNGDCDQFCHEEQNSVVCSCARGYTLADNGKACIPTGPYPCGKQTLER
T6 sequence (P00742 235-488 limits assumed, chain 2 of 2): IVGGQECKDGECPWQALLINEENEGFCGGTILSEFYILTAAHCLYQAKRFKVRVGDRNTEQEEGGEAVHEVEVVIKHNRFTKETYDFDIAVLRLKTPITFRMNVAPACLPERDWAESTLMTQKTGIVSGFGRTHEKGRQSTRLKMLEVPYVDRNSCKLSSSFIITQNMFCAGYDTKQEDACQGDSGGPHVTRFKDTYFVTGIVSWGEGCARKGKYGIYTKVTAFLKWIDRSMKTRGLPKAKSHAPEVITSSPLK

[6] = target: Thrombin, from Human Plasma, high activity (human, UniProt P00734 328-622)
[7] = target: T7, Chymotrypsin, from human pancreas (human, UniProt P17538 19-263)
T7 construct: purified natural enzyme, bought
T7 sequence (P17538 19-263): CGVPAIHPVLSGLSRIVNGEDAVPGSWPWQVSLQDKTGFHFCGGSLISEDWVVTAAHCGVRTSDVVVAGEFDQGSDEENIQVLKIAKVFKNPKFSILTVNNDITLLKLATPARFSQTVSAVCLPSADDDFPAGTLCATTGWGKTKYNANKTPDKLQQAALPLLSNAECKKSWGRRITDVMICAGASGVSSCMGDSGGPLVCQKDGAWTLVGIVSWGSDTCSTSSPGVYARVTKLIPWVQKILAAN

Binder	% inhibition at 100 µM [1] [%]	% inhibition at 100 µM [2] [%]	% inhibition at 100 µM (Chymase, from human skin) [%]	% inhibition at 100 µM [3] [%]	% inhibition at 100 µM [4] [%]	% inhibition at 100 µM [5] [%]	% inhibition at 100 µM [6] [%]	% inhibition at 100 µM [7] [%]
XETASIPPQKY (HELM PEPTIDE1{[Nle].E.T.A.S.I.P.P.Q.K.Y.[dP].P}$PEPTIDE1,PEPTIDE1,1:R1-13:R2$$$V2.0; SMILES CCCC[C@@H]1NC(=O)[C@@H]2CCCN2C(=O)[C@H]2CCCN2C(=O)[C@H](Cc2ccc(O)cc2)NC(=O)[C@H](CCCCN)NC(=O)[C@H](CCC(N)=O)NC(=O)[C@@H]2CCCN2C(=O)[C@@H]2CCCN2C(=O)[C@H]([C@@H](C)CC)NC(=O)[C@H](CO)NC(=O)[C@H](C)NC(=O)[C@H]([C@@H](C)O)NC(=O)[C@H](CCC(=O)O)NC1=O) [Example 104]	53.5	0	0	0	0			
XQTASIPPQTY (HELM PEPTIDE1{[CCCCCCCC[C@H](N[*:1])C(=O)[*:2]].Q.T.A.S.I.P.P.Q.T.Y.[dP].P}$PEPTIDE1,PEPTIDE1,1:R1-13:R2$$$V2.0; SMILES CCCCCCCC[C@@H]1NC(=O)[C@@H]2CCCN2C(=O)[C@H]2CCCN2C(=O)[C@H](Cc2ccc(O)cc2)NC(=O)[C@H]([C@@H](C)O)NC(=O)[C@H](CCC(N)=O)NC(=O)[C@@H]2CCCN2C(=O)[C@@H]2CCCN2C(=O)[C@H]([C@@H](C)CC)NC(=O)[C@H](CO)NC(=O)[C@H](C)NC(=O)[C@H]([C@@H](C)O)NC(=O)[C@H](CCC(N)=O)NC1=O) [Example 154]	27	0	0		15	0		
cyclo([Gly(octyl)]ETASIPPQKY[dP]P) (also called Ex. 156) [Example 156]	46	0	0		15	0	17	
XQTASIPPQTY (HELM PEPTIDE1{[Nle].Q.T.A.S.I.P.P.Q.T.Y.[dP].P}$PEPTIDE1,PEPTIDE1,1:R1-13:R2$$$V2.0; SMILES CCCC[C@@H]1NC(=O)[C@@H]2CCCN2C(=O)[C@H]2CCCN2C(=O)[C@H](Cc2ccc(O)cc2)NC(=O)[C@H]([C@@H](C)O)NC(=O)[C@H](CCC(N)=O)NC(=O)[C@@H]2CCCN2C(=O)[C@@H]2CCCN2C(=O)[C@H]([C@@H](C)CC)NC(=O)[C@H](CO)NC(=O)[C@H](C)NC(=O)[C@H]([C@@H](C)O)NC(=O)[C@H](CCC(N)=O)NC1=O, also called Ex. 109) [Example 109]	54.1	0					0	13.8
cyclo([Nle]CAASIPPQCY[dP]P) (disulfide 2-10, also called Ex. 86) [Example 86]	47	0	0		0	24.8	10.7	
XCTASIPPQCQ (HELM PEPTIDE1{[Nle].C.T.A.S.I.P.P.Q.C.Q.[dP].P}$PEPTIDE1,PEPTIDE1,2:R3-10:R3|PEPTIDE1,PEPTIDE1,1:R1-13:R2$$$V2.0; SMILES CCCC[C@@H]1NC(=O)[C@@H]2CCCN2C(=O)[C@H]2CCCN2C(=O)[C@H](CCC(N)=O)NC(=O)[C@@H]2CSSC[C@H](NC1=O)C(=O)N[C@@H]([C@@H](C)O)C(=O)N[C@@H](C)C(=O)N[C@@H](CO)C(=O)N[C@@H]([C@@H](C)CC)C(=O)N1CCC[C@H]1C(=O)N1CCC[C@H]1C(=O)N[C@@H](CCC(N)=O)C(=O)N2, also called Ex. 91) [Example 91]	45	0				19.4	13.5	
XCTASIPPQCQ (HELM PEPTIDE1{[O=C([C@H](CCc1ccccc1)N[*:1])[*:2]].C.T.A.S.I.P.P.Q.C.Q.[dP].P}$PEPTIDE1,PEPTIDE1,2:R3-10:R3|PEPTIDE1,PEPTIDE1,1:R1-13:R2$$$V2.0; SMILES CC[C@H](C)[C@@H]1NC(=O)[C@H](CO)NC(=O)[C@H](C)NC(=O)[C@H]([C@@H](C)O)NC(=O)[C@@H]2CSSC[C@H](NC(=O)[C@H](CCC(N)=O)NC(=O)[C@@H]3CCCN3C(=O)[C@@H]3CCCN3C1=O)C(=O)N[C@@H](CCC(N)=O)C(=O)N1CCC[C@@H]1C(=O)N1CCC[C@H]1C(=O)N[C@@H](CCc1ccccc1)C(=O)N2, also called Ex. 143) [Example 143]	28	12	0		18	0	12	91
XCTASXPPQCY (HELM PEPTIDE1{[Nle].C.T.A.S.[Cha].P.P.Q.C.Y.[dP].P}$PEPTIDE1,PEPTIDE1,2:R3-10:R3|PEPTIDE1,PEPTIDE1,1:R1-13:R2$$$V2.0; SMILES CCCC[C@@H]1NC(=O)[C@@H]2CCCN2C(=O)[C@H]2CCCN2C(=O)[C@H](Cc2ccc(O)cc2)NC(=O)[C@@H]2CSSC[C@H](NC1=O)C(=O)N[C@@H]([C@@H](C)O)C(=O)N[C@@H](C)C(=O)N[C@@H](CO)C(=O)N[C@@H](CC1CCCCC1)C(=O)N1CCC[C@H]1C(=O)N1CCC[C@H]1C(=O)N[C@@H](CCC(N)=O)C(=O)N2, also called Ex. 141) [Example 141]	63.4	0	0		44.5	15.3	0	72.9
cyclo([Nle]CTAS[Cha]P[Pro(4NHCOPhe)]QCQ[dQ]Q) (disulfide 2-10; reading uncertain, also called Ex. 176) [Example 176]	69				17		15	55
XCTASIPPQCY (HELM PEPTIDE1{[O=C([C@H](CCc1ccccc1)N[*:1])[*:2]].C.T.A.S.I.P.P.Q.C.Y.[dK].E}$PEPTIDE1,PEPTIDE1,2:R3-10:R3|PEPTIDE1,PEPTIDE1,1:R1-13:R2$$$V2.0; SMILES CC[C@H](C)[C@@H]1NC(=O)[C@H](CO)NC(=O)[C@H](C)NC(=O)[C@H]([C@@H](C)O)NC(=O)[C@@H]2CSSC[C@H](NC(=O)[C@H](CCC(N)=O)NC(=O)[C@@H]3CCCN3C(=O)[C@@H]3CCCN3C1=O)C(=O)N[C@@H](Cc1ccc(O)cc1)C(=O)N[C@H](CCCCN)C(=O)N[C@@H](CCC(=O)O)C(=O)N[C@@H](CCc1ccccc1)C(=O)N2) [Example 174]	56		0		10		11	85
XCTASIPPQCY (HELM PEPTIDE1{[Nle].C.T.A.S.I.P.P.Q.C.Y.[dK].E}$PEPTIDE1,PEPTIDE1,2:R3-10:R3|PEPTIDE1,PEPTIDE1,1:R1-13:R2$$$V2.0; SMILES CCCC[C@@H]1NC(=O)[C@H](CCC(=O)O)NC(=O)[C@@H](CCCCN)NC(=O)[C@H](Cc2ccc(O)cc2)NC(=O)[C@@H]2CSSC[C@H](NC1=O)C(=O)N[C@@H]([C@@H](C)O)C(=O)N[C@@H](C)C(=O)N[C@@H](CO)C(=O)N[C@@H]([C@@H](C)CC)C(=O)N1CCC[C@H]1C(=O)N1CCC[C@H]1C(=O)N[C@@H](CCC(N)=O)C(=O)N2) [Example 127]	64	0			0	13.3		47.2
